Key:
human IL-17A [1] = biological target: T1, human IL-17A (human, UniProt Q16552 24-155); assay: SPR, IL-17A-Nanobody complex over captured IL-17RA
T1 construct: secreted form (GenBank U32659) expressed in Hek293 with C-terminal 6-His; also called hIL-17A; IL-17A-6HIS
T1 sequence (Q16552 other isoform, or with tags, fused parts or gaps): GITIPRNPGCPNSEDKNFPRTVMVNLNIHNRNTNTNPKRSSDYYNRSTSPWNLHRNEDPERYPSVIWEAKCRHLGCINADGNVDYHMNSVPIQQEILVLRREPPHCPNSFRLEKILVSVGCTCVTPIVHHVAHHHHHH
Description: (§1) The receptor (IL-17RA or IL-17RC) was captured via its human Fc-tail by an anti-human IgG-Fc antibody coated on the chip.

human IL-17F [2] = biological target: T2, human IL-17F (human, UniProt Q96PD4 31-163); assay: SPR, IL-17F-Nanobody complex over captured IL-17RC
T2 construct: GenBank AF384857, expressed in Hek293 as 6-His C-terminal tagged protein; also called hIL-17F; IL-17F-6HIS
T2 sequence: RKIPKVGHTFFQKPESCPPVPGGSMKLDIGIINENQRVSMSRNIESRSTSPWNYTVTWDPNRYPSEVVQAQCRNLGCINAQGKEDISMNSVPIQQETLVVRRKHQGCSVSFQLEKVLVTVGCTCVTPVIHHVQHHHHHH
Description: as §1

human IL-17F [3] = biological target: T2, human IL-17F; assay: ELISA, coated IL-17F;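 note: binding ELISA on coated antigen from various species, with bound Nanobodies revealed by an HRP-linked anti-myc antibody and esTMB substrate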
Protocol: (§2) Binding of a selected panel of anti-IL-17 Nanobodies to IL-17 of other species was assessed using a binding ELISA. […] HRP (horseradish peroxidase) conjugated anti-myc (Serotec, MCA 2200P) was used for detection using esTMB as substrate.

mouse IL-17F = biological target: T3, mouse IL-17F (mouse, UniProt Q7TNI7 29-161); assay: ELISA, coated IL-17F;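 note: binding ELISA on coated antigen from various species, with bound Nanobodies revealed by an HRP-linked anti-myc antibody and esTMB substrate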
T3 sequence (looked up): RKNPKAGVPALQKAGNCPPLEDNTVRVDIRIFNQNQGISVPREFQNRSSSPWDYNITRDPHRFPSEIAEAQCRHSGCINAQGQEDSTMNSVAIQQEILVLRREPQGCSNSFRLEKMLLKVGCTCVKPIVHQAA
Protocol: as §2

rat IL-17F = biological target: T4, rat IL-17F (rat, UniProt Q5BJ95 29-161); assay: ELISA, coated IL-17F;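 note: binding ELISA on coated antigen from various species, with bound Nanobodies revealed by an HRP-linked anti-myc antibody and esTMB substrate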
T4 sequence (looked up): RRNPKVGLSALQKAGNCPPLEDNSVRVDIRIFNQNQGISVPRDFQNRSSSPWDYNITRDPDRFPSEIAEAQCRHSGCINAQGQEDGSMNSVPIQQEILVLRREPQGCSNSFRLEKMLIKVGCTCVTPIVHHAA
Protocol: as §2

rat IL-17A = biological target: T5, rat IL-17A (rat, UniProt Q61453 18-150, limits assumed); assay: ELISA, coated IL-17A
T5 sequence (looked up): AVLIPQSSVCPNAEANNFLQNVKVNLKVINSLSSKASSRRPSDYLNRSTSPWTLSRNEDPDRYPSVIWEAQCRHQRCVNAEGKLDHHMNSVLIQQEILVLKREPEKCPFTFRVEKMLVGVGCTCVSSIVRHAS
Protocol: as §2

guinea pig IL-17A = guinea pig IL-17A (guinea pig); assay: ELISA, coated IL-17A
Protocol: as §2

human IL-17A [4] = biological target: T1, human IL-17A; assay: ELISA, coated IL-17A
Protocol: as §2

marmoset IL-17A = biological target: T6, marmoset IL-17A (marmoset, IL-17A is a disulfide-linked homodimer. One chain is given.); assay: ELISA, coated IL-17A
T6 chain: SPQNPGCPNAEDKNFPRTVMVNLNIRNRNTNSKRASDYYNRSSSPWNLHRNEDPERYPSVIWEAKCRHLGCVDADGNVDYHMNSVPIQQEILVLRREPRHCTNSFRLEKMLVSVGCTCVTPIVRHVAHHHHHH
Protocol: as §2

mouse IL-17A = biological target: T7, mouse IL-17A (mouse, UniProt Q62386 26-158); assay: ELISA, coated IL-17A
T7 sequence (looked up): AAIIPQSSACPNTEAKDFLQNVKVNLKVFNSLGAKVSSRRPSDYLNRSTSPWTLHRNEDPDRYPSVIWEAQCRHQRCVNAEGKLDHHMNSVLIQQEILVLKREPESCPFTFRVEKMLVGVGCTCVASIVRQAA
Protocol: as §2

human IL-17A [5] = biological target: T8, human IL-17A (human, UniProt Q16552 24-155); assay: AlphaScreen hIL-17A-IL-17RA; vs IL17MS13B03
T8 construct: secreted form made in Hek293 cells (GenBank U32659); also called hIL-17A; hIL17A
T8 sequence (Q16552 other isoform, or with tags, fused parts or gaps): as the sequence (Q16552 other isoform, or with tags, fused parts or gaps) above

[6] = biological target: T9, human IL-17A/F heterodimer (human, UniProt Q16552 24-155; Q96PD4 31-163, limits assumed); assay: SPR (Biacore) off-rate
T9 construct: bought, made in E. coli (R&D Systems 5194-IL/CF); also called hIL-17A/F; hIL17A/F
T9 sequence (Q16552 24-155 limits assumed, chain 1 of 2, one chain of several): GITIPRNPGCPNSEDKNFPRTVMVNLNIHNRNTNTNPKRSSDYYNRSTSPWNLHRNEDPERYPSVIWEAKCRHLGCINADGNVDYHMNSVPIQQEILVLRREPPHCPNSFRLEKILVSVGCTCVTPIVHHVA

human IL-17F [7] = biological target: T10, human IL-17F (human, UniProt Q96PD4 31-163); assay: SPR (Biacore) off-rate
T10 construct: made in Hek293 cells (GenBank AF384857); also called hIL-17F; hIL17F
T10 sequence: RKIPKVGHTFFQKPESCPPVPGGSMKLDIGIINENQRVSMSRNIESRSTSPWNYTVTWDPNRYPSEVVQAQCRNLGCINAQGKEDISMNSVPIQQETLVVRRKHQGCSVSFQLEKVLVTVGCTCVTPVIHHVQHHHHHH

human IL-17A [8] = biological target: T8, human IL-17A; assay: SPR (Biacore) off-rate
human IL-17F [9] = biological target: T10, human IL-17F; assay: AlphaScreen hIL-17F-IL-17RC; vs IL17MS13B03
human IL-17A [10] = biological target: T1, human IL-17A; assay: AlphaScreen IL-17A-IL-17RA, average
human IL-17A [11] = biological target: T1, human IL-17A; assay: SPR
[12] = biological target: T11, human IL-17A/F heterodimer (human, UniProt Q16552 24-155; Q96PD4 31-163, limits assumed); assay: SPR
T11 construct: produced in E. coli, bought from R&D Systems (Cat 5194-IL/CF); also called hIL-17A/F
T11 sequence (Q16552 24-155 limits assumed, chain 1 of 2, one chain of several): as the sequence (Q16552 24-155 limits assumed, chain 1 of 2, one chain of several) above

human IL-17F [13] = biological target: T10, human IL-17F; assay: AlphaScreen IL-17F-IL-17RC; vs IL17MS16A04
human IL-17A [14] = biological target: T12, human IL-17A (human, UniProt Q16552 24-155, biotinylated with Sulfo-NHS-LC-Biotin in the AlphaScreen assays only); assay: AlphaScreen competition, hIL-17A - IL-17RC-Fc;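 note: Read-out after 1 h at room temperature with the receptor Fc-fusion, Acceptor beads and streptavidin-coated Donor beads present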
T12 construct: also called hIL-17A; recombinant human IL-17A
Protocol: (§3) To this mixture, the IL-17RA or IL-17RC Fc-fusions, Acceptor beads and the streptavidin Donor beads were added and further incubated for 1 hour at RT.

[15] = biological target: T13, human IL-17A/F heterodimer (human, UniProt Q16552 24-155; Q96PD4 31-163, limits assumed, biotinylated with Sulfo-NHS-LC-Biotin in the AlphaScreen assays only); assay: AlphaScreen competition, hIL-17A/F - IL-17RA-Fc
T13 construct: also called hIL-17A/F
Target sequence in this assay (Q16552 24-155 limits assumed, chain 1 of 2, one chain of several): as the sequence (Q16552 24-155 limits assumed, chain 1 of 2, one chain of several) above
Protocol: as §3

human IL-17F [16] = biological target: T14, human IL-17F (human, UniProt Q96PD4 31-163, biotinylated with Sulfo-NHS-LC-Biotin in the AlphaScreen assays only); assay: SPR Biacore, hIL-17F on chip; periplasmic extract (*); NB = no binding
T14 construct: also called hIL-17F; recombinant human IL-17F
T14 sequence: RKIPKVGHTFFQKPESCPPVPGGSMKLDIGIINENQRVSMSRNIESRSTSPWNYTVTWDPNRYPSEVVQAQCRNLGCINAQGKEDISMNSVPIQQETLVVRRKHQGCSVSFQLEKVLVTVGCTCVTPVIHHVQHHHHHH

human IL-17A [17] = biological target: T12, human IL-17A; assay: SPR Biacore, hIL-17A on chip; periplasmic extract (*)
Protocol: (§4) Off-rates of the periplasmic extracts containing anti-IL-17 Nanobodies were measured by Surface Plasmon Resonance (SPR) using a Biacore T100 instrument. […] Periplasmic extracts containing IL-17 neutralizing Nanobodies were injected for 2 minutes at a flow rate of 45 μl/min to allow binding to chip-bound antigen. Next, binding buffer without periplasmic extracts was sent over the chip at the same flow rate to allow spontaneous dissociation of bound Nanobody. From the sensorgrams obtained for the different periplasmic extracts koff-values (k₄) were calculated.

[18] = biological target: T13, human IL-17A/F heterodimer; assay: SPR Biacore, hIL-17A/F on chip; periplasmic extract (*)
Target sequence in this assay (Q16552 24-155 limits assumed, one chain of several): as the sequence (Q16552 24-155 limits assumed, chain 1 of 2, one chain of several) above
Protocol: as §4

[19] = biological target: T13, human IL-17A/F heterodimer; assay: AlphaScreen competition, hIL-17A/F - IL-17RC-Fc
Target sequence in this assay (Q16552 24-155 limits assumed, chain 1 of 2, one chain of several): as the sequence (Q16552 24-155 limits assumed, chain 1 of 2, one chain of several) above
Protocol: as §3

human IL-17A [20] = biological target: T12, human IL-17A; assay: cell-based or functional assay
human IL-17A [21] = biological target: T12, human IL-17A; assay: AlphaScreen competition, hIL-17A - IL-17RA-Fc;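 note: receptor Fc-fusion plus Acceptor and streptavidin Donor beads incubated with the mixture for 1 h at room temperature before reading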
Protocol: as §3

[22] = biological target: T13, human IL-17A/F heterodimer; assay: cell-based or functional assay

T12 sequence (Q16552 other isoform, or with tags, fused parts or gaps): as the sequence (Q16552 other isoform, or with tags, fused parts or gaps) above

B1: 17C01 (VHH)
VHH: EVQLVESGGRLVQAGGSLRLPCAASGRTFTSYPMGWFRQAPGKEREFVAAISMSGDDAAYADFVRGRFTISRDDARNTVYLHMTSLKPEDTAVYYCAARTSYDGTYDYIDDYSYWGQGTQVTVSS
notes: Class 4
Human IL-17A [1]
  % Biacore binding (IL-17A-NB)-IL-17RA: -2.01%
Human IL-17F [2]
  % Biacore binding (IL-17F-NB)-IL-17RC: 32.5%
Human IL-17F [3]
  OD: 0.772 OD
Mouse IL-17F
  OD: -0.0005 OD
Rat IL-17F
  OD: 0.0025 OD
Rat IL-17A
  OD: 0 OD
Guinea pig IL-17A
  OD: 0.007 OD
Human IL-17A [4]
  OD: 1.83 OD
Marmoset IL-17A
  OD: 1.84 OD
Mouse IL-17A
  OD: -0.001 OD

B2: IL17MS3047 (VHH)
VHH: EVQLVESGGGLVQPGGSLRLSCAASGRANSINWFGWFRQAPGKEREFVAGIRWSDAYTEYAASVKGRFTISRDNSKNTVYLQMNSLRPEDTAVYYCVLDLSTVRYWGQGTLVTVSS
notes: variant of IL17MS13B03; Kabat numbering
Human IL-17A [5]
  IC50 fold difference compared to WT: 1.1 fold
[6]
  koff: 0.000538 s⁻¹
Human IL-17F [7]
  koff: 0.00348 s⁻¹
Human IL-17A [8]
  koff: 0.000252 s⁻¹
Human IL-17F [9]
  IC50 fold difference compared to WT: 0.7 fold

B3: IL17MS3052 (VHH)
VHH: EVQLVESGGGSVQAGDSLRLSCAASGRASSINWFGWFRQTPGKEREFVAGIRWSDAYTEYANSVKGRFTISRDNAKNTVDLQMDSLKPEDTAVYYCVLDLSTVRYWGQGTQVTVSS
notes: as for B2
Human IL-17A [5]
  IC50 fold difference compared to WT: 0.9 fold
[6]
  koff: 0.000518 s⁻¹
Human IL-17F [7]
  koff: 0.00439 s⁻¹
Human IL-17A [8]
  koff: 0.000289 s⁻¹
Human IL-17F [9]
  IC50 fold difference compared to WT: 0.5 fold

B4: IL17MS3053 (VHH)
VHH: EVQLVESGGGSVQAGDSLRLSCAASGRANTINWFGWFRQTPGKEREFVAGIRWSDAYTEYANSVKGRFTISRDNAKNTVDLQMDSLKPEDTAVYYCVLDLSTVRYWGQGTQVTVSS
notes: as for B2
Human IL-17A [5]
  IC50 fold difference compared to WT: 1.3 fold
[6]
  koff: 0.00052 s⁻¹
Human IL-17F [7]
  koff: 0.00982 s⁻¹
Human IL-17A [8]
  koff: 0.000258 s⁻¹
Human IL-17F [9]
  IC50 fold difference compared to WT: 1.2 fold

B5: IL17MS3051 (VHH)
VHH: EVQLVESGGGSVQAGDSLRLSCAASGRAFSINWFGWFRQTPGKEREFVAGIRWSDAYTEYANSVKGRFTISRDNAKNTVDLQMDSLKPEDTAVYYCVLDLSTVRYWGQGTQVTVSS
notes: as for B2
Human IL-17A [5]
  IC50 fold difference compared to WT: 1.4 fold
[6]
  koff: 0.000396 s⁻¹
Human IL-17F [7]
  koff: 0.00216 s⁻¹
Human IL-17A [8]
  koff: 0.000205 s⁻¹
Human IL-17F [9]
  IC50 fold difference compared to WT: 0.4 fold

B6: IL17MS3013 (VHH, name in Kabat numbering)
VHH: EVQLVESGGGLVQPGGSQRLSCTASGTIVNIHVMGWYRQAPGKQRELVALIFSGGSADYADSVKGRFTISRDNSKNTVYLQMNSLRPEDTAVYYCAAEIGYYSGGTYYSSEAHWGQGTLVTVSS
notes: basic + A84P; Kabat positions
Human IL-17A [10]
  IC50: 0.081 nM
Human IL-17A [11]
  koff: 0.000116 s⁻¹
[12]
  koff: 0.000185 s⁻¹

B7: IL17MS3017 (VHH, name in Kabat numbering)
VHH: EVQLVESGGGLVQPGGSLRLSCAASGTIVNIHVMGWYRQAPGKQRELVALIFSGGSADYADSVKGRFTISRDNSKNTVYLQMNSLRPEDTAVYYCAAEIGYYSGGTYYSSEAHWGQGTLVTVSS
notes: basic + Q18L, T23A, A84P; Kabat positions
Human IL-17A [10]
  IC50: 0.163 nM
Human IL-17A [11]
  koff: 0.000144 s⁻¹
[12]
  koff: 0.000242 s⁻¹

B8: IL17MS3059 (VHH)
VHH: DVQLVESGGGLVQPGGSLRLSCAASGRTFSSYVVGWFRQAPGKEREFVGAISGSGESIYYAVSEKGRFTISRDNSKNTLYLQMNSLRPEDTAVYYCTADQEFGYLRFGRSEYWGQGTLVTVSS
notes: variant of IL17MS16A04; Kabat numbering
Human IL-17F [13]
  IC50 fold difference vs WT: 6.7 fold

B9: IL17MS3062 (VHH)
VHH: EVQLVESGGGLVQPGGSLRLSCAASGRTFSSYVVGWFRQAPGKEREFVGAISGSGESIYYAVSEKGRFTISRDNSKNTLYLQMNSLRPEDTAVYYCTADQEFGYLRFGRSEYWGQGTLVTVSS
notes: as for B8
Human IL-17F [13]
  IC50 fold difference vs WT: 7.4 fold

B10: IL17MS3064 (VHH)
VHH: DVQLVESGGGLVQPGGSLRLSCAASGRTFSSYVVGWFRQAPGKEREFVGAISGSGDTIYYAVSEKGRFTISRDNSKNTLYLQMNSLRPEDTAVYYCTADQEFGYLRFGRSEYWGQGTLVTVSS
notes: as for B8
Human IL-17F [13]
  IC50 fold difference vs WT: 30.3 fold

B11: IL17MS3065 (VHH)
VHH: DVQLVESGGGLVQPGGSLRLSCAASGRTFSSYVVGWFRQAPGKEREFIGAISGSGDTIYYAVSEKGRFTISRDNSKNTLYLQMNSLRPEDTAVYYCTADQEFGYLRFGRSEYWGQGTLVTVSS
notes: as for B8
Human IL-17F [13]
  IC50 fold difference vs WT: 12.7 fold

B12: 01D06 (VHH)
VHH: EVQLVESGGGLVQAGGSLRLSCAADGRTFSTYGMTWFRQVPGKEREFVAHIPRSTYSPYYANSVKGRFTIARDDAKSTVYLQMNSLKPEDTAVYYCAVFTGGTYYVPTAYDYWGQGTQVTVSS
notes: Class 2 Nanobody (anti-IL-17A and IL-17A/F); not shown: c-myc, His6 tag
Human IL-17A [14]
  IC50: 1.52 nM
[15]
  IC50: 0.401 nM
Human IL-17F [16]
  binding result: no binding
Human IL-17A [17]
  koff: 0.00097 s⁻¹
[18]
  koff: 0.0013 s⁻¹
[19]
  IC50: 0.198 nM
Human IL-17A [20]
  IL-17A-induced IL-6 production in HT-1080 cells, Emax: 98.3%
  IL-17A-induced IL-6 production in HT-1080 cells, IC50: 42.8 nM
Human IL-17A [21]
  IC50: 0.618 nM
[22]
  IL-17A/F-induced IL-6 production in HT-1080 cells, Emax: 79.5%
  IL-17A/F-induced IL-6 production in HT-1080 cells, IC50: 51.1 nM
